Data reported in patent US20250353908A1 (ARCELLX, published 2025).

Molecular target: T1, CS1-Fc (human, UniProt Q9NQ25 23-226)
T1 construct: also called recombinant human CS1-Fc; CS1-Fc polypeptide; not shown: Fc portion of CS1-Fc
T1 sequence: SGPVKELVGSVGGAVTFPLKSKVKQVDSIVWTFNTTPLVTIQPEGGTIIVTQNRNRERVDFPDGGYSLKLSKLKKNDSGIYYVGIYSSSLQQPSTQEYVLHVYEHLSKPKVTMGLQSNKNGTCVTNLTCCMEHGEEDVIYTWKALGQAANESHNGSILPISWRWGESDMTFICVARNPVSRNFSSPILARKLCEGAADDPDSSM
Test: SPR (Biacore), adapter protein DD-GS linker-Q26, CS1-Fc target
From the text: One or more of the above discussed methods were used to identify the SEQ ID NO: 41-47, 49-61, 91-93 and 96-106 variant CS1 specific D domains. […] In addition to binding human CS1, the CS1DD03, CSDD006 and CS1DD007 D domains are cross-reactive with cyno/rhesus CS1.

B1: CS1DD021 adapter protein of the format DD-GS linker-Q26 (designed binder)
chain: MGSWDEFNQRLGAFEERLQALGGSEAELAALEKEIAAFESELQAYKGKGNPEVEFLRWYADGIRWELQAYRHN
**Q.** How did the Kd turn out when B1 was run?
**A.** 16 nM
